Residue numbers refer to the chain shown, from its start. Each block holds one binder with its values, some of them ahead of it.
Tests used:
[1] = target: T1, human ACVR1 extracellular domain expressed with a C-terminal mouse IgG2a Fc tag (human); assay: SPR (Biacore), mAb captured, 25 C
T1 construct: also called hACVR1-mFc
T1 chain: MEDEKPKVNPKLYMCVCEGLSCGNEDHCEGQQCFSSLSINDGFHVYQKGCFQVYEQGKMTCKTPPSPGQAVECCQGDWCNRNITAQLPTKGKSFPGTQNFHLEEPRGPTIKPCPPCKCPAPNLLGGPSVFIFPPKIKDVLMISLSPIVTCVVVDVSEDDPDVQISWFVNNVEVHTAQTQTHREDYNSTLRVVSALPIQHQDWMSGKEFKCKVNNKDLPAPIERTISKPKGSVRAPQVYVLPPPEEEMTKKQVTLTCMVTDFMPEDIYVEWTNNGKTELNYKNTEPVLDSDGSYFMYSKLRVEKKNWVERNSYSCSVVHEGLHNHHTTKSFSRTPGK
Method: (§1) Equilibrium dissociation constants (KD) for ACVR1 binding to purified anti-ACVR1 monoclonal antibodies were determined using a real-time surface plasmon resonance biosensor (SPR-Biacore), Biacore 4000. All binding studies were performed in 10 mM HEPES, 150 mM NaCl, 3 mM EDTA, and 0.05% v/v surfactant Tween-20, pH 7.4 (HBS-ET) running buffer at 25° C. and 37° C. The Biacore CM5 sensor surface was first derivatized by amine coupling with a monoclonal mouse anti-human Fc antibody (GE, #BR-1008-39 or REGN2567) to capture anti-ACVR1 monoclonal antibodies. […] ACVR1 reagents were then injected over anti-human Fc captured anti-ACVR1 monoclonal antibody surface for 2.5-3 minutes at a flow rate of 30 μL/minute, while the dissociation of monoclonal antibody bound ACVR1 reagent was monitored for 10-15 minutes in HBS-ET running buffer. Kinetic association rate constant (kₐ) and dissociation rate constant (kd) were determined by fitting the real-time sensorgrams to a 1:1 binding model using Scrubber 2.0c curve-fitting software. Binding dissociation equilibrium constants (KD) and dissociative half-lives (t½) were calculated from the kinetic rate constants as: […]

[2] = target: T2, human ACVR1 extracellular domain expressed with a C-terminal myc-myc-hexahistidine tag (human); assay: SPR (Biacore), mAb captured, 25 C
T2 construct: also called hACVR1-MMH
T2 chain: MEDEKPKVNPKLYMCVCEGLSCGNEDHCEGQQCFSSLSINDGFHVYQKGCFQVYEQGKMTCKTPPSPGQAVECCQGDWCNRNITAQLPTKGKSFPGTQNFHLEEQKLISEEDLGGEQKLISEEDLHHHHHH
Method: as §1

[3] = target: T3, mouse ACVR1 extracellular domain expressed with a C-terminal myc-myc-hexahistidine tag (mouse); assay: SPR (Biacore), mAb captured, 25 C
T3 construct: also called mACVR1-MMH; mACVR1-mmh
T3 chain: T2 chain with M1V, P10Q
Method: as §1

[4] = target: T1, human ACVR1 extracellular domain …; assay: SPR (Biacore), mAb captured, 37 C
Method: as §1

[5] = target: T2, human ACVR1 extracellular domain …; assay: SPR (Biacore), mAb captured, 37 C
Method: as §1

[6] = target: T3, mouse ACVR1 extracellular domain …; assay: SPR (Biacore), mAb captured, 37 C
Method: as §1

[7] = target: T4, full length human ACVR1 (R206H) on HEK293/BRE-luc/hACVR1-R206H-clone H2 cells (human, UniProt Q04771 21-509); assay: flow cytometry, 70 nM antibody, HEK293/hACVR1-R206H cells
T4 construct: also called HEK293/hACVR1-R206H
T4 sequence: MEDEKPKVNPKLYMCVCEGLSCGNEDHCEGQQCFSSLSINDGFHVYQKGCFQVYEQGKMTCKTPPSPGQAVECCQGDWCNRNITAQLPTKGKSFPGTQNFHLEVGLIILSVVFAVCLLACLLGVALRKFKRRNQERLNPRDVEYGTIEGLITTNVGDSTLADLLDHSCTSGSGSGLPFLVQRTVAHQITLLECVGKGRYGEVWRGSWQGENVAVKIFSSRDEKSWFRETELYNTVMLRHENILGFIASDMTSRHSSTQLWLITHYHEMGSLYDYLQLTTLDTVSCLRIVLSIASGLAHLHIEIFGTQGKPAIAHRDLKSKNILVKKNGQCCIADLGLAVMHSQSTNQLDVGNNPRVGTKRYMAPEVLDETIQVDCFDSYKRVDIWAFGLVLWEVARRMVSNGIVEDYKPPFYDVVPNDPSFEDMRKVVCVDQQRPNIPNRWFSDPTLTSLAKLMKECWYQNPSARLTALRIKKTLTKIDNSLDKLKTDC
Method: Cells were fixed using BD CytoFix™ (Becton Dickinson, #554655) and analyzed on either Hypercyt® or IQue® Flow Cytometers (Intellicyt®). Unstained and secondary antibody alone controls were also tested for all cell lines. The results were analyzed using ForeCyt® (IntelliCyt®) software to determine the geometric means of fluorescence for viable cells and binding ratios were calculated by normalizing the geometric mean value of the test condition by the geometric mean value of the corresponding unstained cells.

[8] = target: T4, full length human ACVR1 (R206H) on …; assay: cell-based or functional assay

100 nM Ag Bound (RU) [1]: 186 RU
Kd [1]: 0.787 nM
koff [1]: 0.00018 s⁻¹
kon [1]: 229000 M⁻¹ s⁻¹
t½ [1]: 64 min
900 nM or 100 nM Ag Bound (RU) [2]: 52 RU
Kd [2]: 10.4 nM
koff [2]: 0.00119 s⁻¹
kon [2]: 115000 M⁻¹ s⁻¹
t½ [2]: 10 min
900 nM or 100 nM Ag Bound (RU) [3]: 3 RU
binding result [3]: no binding (tested: 900 nM or 100 nM)
100 nM Ag Bound (RU) [4]: 219 RU
Kd [4]: 1.39 nM
koff [4]: 0.000515 s⁻¹
kon [4]: 371000 M⁻¹ s⁻¹
t½ [4]: 22 min
900 nM or 100 nM Ag Bound (RU) [5]: 67 RU
Kd [5]: 19.3 nM
koff [5]: 0.00404 s⁻¹
kon [5]: 209000 M⁻¹ s⁻¹
t½ [5]: 2.9 min
900 nM or 100 nM Ag Bound (RU) [6]: 4 RU
MFI - Normalized to Unstained Control [7]: 1660 fold
B1: mAb27247 (antibody, human IgG4 S228P, kappa, V domains shown)
VH: EIQLVESGGDLVQPGGSLKLSCAASGFTFSDSAMHWVRQASGKGLEWVGRIRNKANTYATSYAASVKGRFTVSTDDSKTTAYLQMRYLKIEDTAIYYCTSDQFDYWGQGTLVTVSS
VL: DVVMTQSPLSLSATLGQPASISCRSSQSLVYSDGITYLTWFQQRPGQSPTRLIYQVSNRDSGVPDRFNGSGSGTDFTLNISRVEAEDVGFYYCMEGTHWPWTFGQGTKVELKR
notes: also called H4H27247

100 nM Ag Bound (RU) [1]: 2 RU
binding result [1]: no binding (tested: 100 nM)
900 nM or 100 nM Ag Bound (RU) [2]: 1 RU
binding result [2]: no binding (tested: 900 nM or 100 nM)
900 nM or 100 nM Ag Bound (RU) [3]: 1 RU
binding result [3]: no binding (tested: 900 nM or 100 nM)
100 nM Ag Bound (RU) [4]: 3 RU
900 nM or 100 nM Ag Bound (RU) [5]: 3 RU
900 nM or 100 nM Ag Bound (RU) [6]: 1 RU
MFI - Normalized to Unstained Control [7]: 5 fold
B2: mAb29233 (antibody, human IgG4 S228P, kappa, V domains shown)
VH: QVQLVQSGAEVKKPGASVKVSCKASGYTFTSYGISWVRQAPGQGLEWMGWISAYNGNTIYAQKFQGRVTMTTDTSTSTAYMELRSLRSDDTAVYYCARDINWYFDLWGRGTLVTVSS
VL: DIQMTQSPSSLSASVGDRVTITCRASQGIRNDLGWFQQKPGKAPKRLIYAASSLQSGVPSRFSGSGSGTEFTLTISSLQPEDFATYYCLQHNSYPWTFGQGTKVEIKR

900 nM or 100 nM Ag Bound (RU) [2]: 0 RU
900 nM or 100 nM Ag Bound (RU) [3]: -1 RU
900 nM or 100 nM Ag Bound (RU) [5]: 5 RU
binding result [5]: no binding (tested: 900 nM or 100 nM)
900 nM or 100 nM Ag Bound (RU) [6]: 2 RU
MFI - Normalized to Unstained Control [7]: 2 fold
B3: mAb29261 (antibody, human IgG4 S228P, kappa, V domains shown)
VH: EVQLVESGGNLVQPGGSLRLSCAASGFTFSNYAMSWVRQAPGKGLEWVSGITGNGINTYYSVSVKGRFTISRDNSKNTVFLQMNSLRAEDTAIYYCVKERGHSWFGDWFDPWGQGTLVTVSS
VL: B2 VL with F36Y

100 nM Ag Bound (RU) [1]: 188 RU
Kd [1]: 0.767 nM
koff [1]: 0.000161 s⁻¹
kon [1]: 210000 M⁻¹ s⁻¹
t½ [1]: 72 min
900 nM or 100 nM Ag Bound (RU) [2]: 57 RU
Kd [2]: 8.27 nM
koff [2]: 0.000937 s⁻¹
kon [2]: 113000 M⁻¹ s⁻¹
t½ [2]: 12 min
900 nM or 100 nM Ag Bound (RU) [3]: 2 RU
binding result [3]: no binding (tested: 900 nM or 100 nM)
100 nM Ag Bound (RU) [4]: 212 RU
Kd [4]: 1.53 nM
koff [4]: 0.000521 s⁻¹
kon [4]: 340000 M⁻¹ s⁻¹
t½ [4]: 22 min
900 nM or 100 nM Ag Bound (RU) [5]: 68 RU
Kd [5]: 25 nM
koff [5]: 0.00456 s⁻¹
kon [5]: 182000 M⁻¹ s⁻¹
t½ [5]: 2.5 min
900 nM or 100 nM Ag Bound (RU) [6]: 2 RU
MFI - Normalized to Unstained Control [7]: 1900 fold
% Inhibition, BRE-luc reporter, 2 nM hBMP7 [8]: 70%
IC50 [M], BRE-luc reporter, 2 nM hBMP7 [8]: 7.3e-10 M
B4: mAb29226 (antibody, human IgG4 S228P, kappa, V domains shown)
VH: EVQLVESGGGLVQPGRSLRLSCAASGFTFDDYGMHWVRQAPGKGLEWVSVISWNSATIDYADSVKGRFTISRDNAKNSLFLQMNSLRPEDTALYYCAKKNSLGWFFDYWGQGTLVTVSS
VL: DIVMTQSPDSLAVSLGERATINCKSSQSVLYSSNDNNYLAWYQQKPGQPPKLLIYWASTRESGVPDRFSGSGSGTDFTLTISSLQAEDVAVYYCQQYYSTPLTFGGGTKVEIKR

100 nM Ag Bound (RU) [1]: 178 RU
Kd [1]: 5.43 nM
koff [1]: 0.00062 s⁻¹
kon [1]: 114000 M⁻¹ s⁻¹
t½ [1]: 19 min
900 nM or 100 nM Ag Bound (RU) [2]: 44 RU
Kd [2]: 109 nM
koff [2]: 0.00679 s⁻¹
kon [2]: 62100 M⁻¹ s⁻¹
t½ [2]: 1.7 min
100 nM Ag Bound (RU) [4]: 205 RU
Kd [4]: 3.88 nM
koff [4]: 0.000911 s⁻¹
kon [4]: 235000 M⁻¹ s⁻¹
t½ [4]: 13 min
900 nM or 100 nM Ag Bound (RU) [5]: 38 RU
Kd [5]: 191 nM
koff [5]: 0.0299 s⁻¹
kon [5]: 156000 M⁻¹ s⁻¹
t½ [5]: 0.39 min
MFI - Normalized to Unstained Control [7]: 1640 fold
% Inhibition, BRE-luc reporter, 2 nM hBMP7 [8]: 93%
IC50 [M], BRE-luc reporter, 2 nM hBMP7 [8]: 1.9e-09 M
B5: mAb29266 (antibody, human IgG4 S228P, kappa, V domains shown)
VH: QVQLVESGGGVVQPGRSLRLSCEVSGFTFSNYGMHWVRQAPGKGLEWVAVVSYDGSNKYYTDSVKGRFTISRDNSKNTLSLQMNSLRAEDTAVYYCAKDRGITGTSGGVFDIWGQGTMVTVSS
VL: AIRMTQSPSSFSATTGDRVTITCRASQGISSHLAWYQQKPGKAPKFLIYVASTLQSGVPSRFSGSGSGTDFTLTISSLQSEDFATYYCQQYYSYPPTFGQGTKVEIKR

100 nM Ag Bound (RU) [1]: -1 RU
900 nM or 100 nM Ag Bound (RU) [2]: -2 RU
900 nM or 100 nM Ag Bound (RU) [3]: -3 RU
100 nM Ag Bound (RU) [4]: 3 RU
900 nM or 100 nM Ag Bound (RU) [5]: 0 RU
900 nM or 100 nM Ag Bound (RU) [6]: 0 RU
MFI - Normalized to Unstained Control [7]: 3 fold
B6: mAb29256 (antibody, human IgG4 S228P, kappa, V domains shown)
VH: B3 VH with I56V, V79L, Q82E
VL: DIQMTQSPSSLSASVGDRVTITCRSSQSVISYLNWYQQKPGKAPKLLIFGASSLISGVPSRFSGSGSGTDFTLTIVSLQPEDFAVYFCQQNYLPPLTFGGGTKVEIKR
notes: also called mAb29256P
